For experiment [1], the target named is T1, CEACAM6 (bar group in Fig. 9B, flow cytometry) (human, UniProt P40199).
T1 construct: on cells (flow cytometry)
T1 sequence (single chain, looked up): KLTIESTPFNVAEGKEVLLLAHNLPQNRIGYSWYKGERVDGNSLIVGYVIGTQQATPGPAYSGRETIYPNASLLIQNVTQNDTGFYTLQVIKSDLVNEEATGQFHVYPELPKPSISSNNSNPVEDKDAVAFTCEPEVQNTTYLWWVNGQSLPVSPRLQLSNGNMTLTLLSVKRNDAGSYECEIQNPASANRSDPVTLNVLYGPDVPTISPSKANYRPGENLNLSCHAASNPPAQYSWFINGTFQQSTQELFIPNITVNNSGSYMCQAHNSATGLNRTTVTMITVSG
Nature of the experiment: flow cytometry, Alexa Fluor 647 anti-human IgG Fc. The procedure:
(§1) Cell fluorescence was quantified using a flow cytometer (Guava easyCyte™ 8HT, Merck-Millipore, USA). For antigen ELISA, CEACAM1(SEQ ID NO:64) (Cat. No. 10822-H08H, Sino Biological, China), CHIM (SEQ ID NO:63), CEA (SEQ ID NO:55) or CEACAM6 (SEQ ID NO:57) were coated in 96-well plates at a concentration of 10 μg/ml overnight at 4° C.

Experiment [2] has as its target T2, CEACAM1 (Cat. No. 10822-H08H, Sino Biological) (Homo sapiens (Human), UniProt P13688 35-428).
T2 construct: Bought protein
T2 sequence: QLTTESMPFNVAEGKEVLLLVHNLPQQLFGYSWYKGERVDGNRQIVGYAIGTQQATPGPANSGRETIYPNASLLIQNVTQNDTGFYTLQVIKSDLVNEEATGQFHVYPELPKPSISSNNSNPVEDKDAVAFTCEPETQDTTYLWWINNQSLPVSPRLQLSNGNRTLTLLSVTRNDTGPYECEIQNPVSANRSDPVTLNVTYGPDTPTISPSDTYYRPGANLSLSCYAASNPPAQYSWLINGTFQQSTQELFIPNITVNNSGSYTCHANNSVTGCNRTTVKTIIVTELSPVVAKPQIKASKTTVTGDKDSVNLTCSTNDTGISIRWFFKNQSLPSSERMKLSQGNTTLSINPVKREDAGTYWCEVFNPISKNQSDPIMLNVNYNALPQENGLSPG
The experiment in a line: antigen ELISA, antigen coated at 10 ug/ml, HRP anti-human Fc. How it is done:
as §1
On the technique in general: In an ELISA, binding on a coated surface is turned into a signal by an enzyme label.

In experiment [3] the target is T3, cynoCEA (Cat.:CE5-C52H5, Acrobiosystem) (cyno).
T3 chain: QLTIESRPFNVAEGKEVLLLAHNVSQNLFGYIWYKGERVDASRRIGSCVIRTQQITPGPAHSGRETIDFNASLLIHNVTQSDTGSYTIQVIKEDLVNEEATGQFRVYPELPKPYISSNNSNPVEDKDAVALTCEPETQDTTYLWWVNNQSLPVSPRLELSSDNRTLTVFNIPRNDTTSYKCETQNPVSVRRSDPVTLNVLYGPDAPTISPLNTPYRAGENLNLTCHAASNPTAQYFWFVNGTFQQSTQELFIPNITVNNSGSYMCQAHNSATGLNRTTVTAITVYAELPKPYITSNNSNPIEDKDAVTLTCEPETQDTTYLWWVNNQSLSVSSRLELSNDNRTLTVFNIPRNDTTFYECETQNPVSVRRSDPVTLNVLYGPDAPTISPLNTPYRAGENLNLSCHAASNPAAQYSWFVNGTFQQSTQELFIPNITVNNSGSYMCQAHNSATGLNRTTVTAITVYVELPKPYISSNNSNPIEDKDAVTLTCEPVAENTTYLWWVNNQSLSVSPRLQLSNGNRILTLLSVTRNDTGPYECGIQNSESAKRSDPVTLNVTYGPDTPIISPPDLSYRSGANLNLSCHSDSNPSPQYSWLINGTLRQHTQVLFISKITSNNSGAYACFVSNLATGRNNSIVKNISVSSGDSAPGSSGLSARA
Nature of the experiment: SPR (BIAcore T-200); antibody captured on anti-human IgG chip, antigen flowed (1.37-2150 nM). Background: In SPR one partner is held on a chip, and binding of the other changes the refractive index at the surface.

Experiment [4] concerns the target T4, human CEA on cells (MKN45, LOVO, NCI-H2122, LS174T, CT26/CEA) (human, UniProt P06731 35-685).
T4 construct: Full-length human CEA, endogenous on tumour cell lines or transduced; also called native CEA on living cells; huCEA surface protein
T4 sequence: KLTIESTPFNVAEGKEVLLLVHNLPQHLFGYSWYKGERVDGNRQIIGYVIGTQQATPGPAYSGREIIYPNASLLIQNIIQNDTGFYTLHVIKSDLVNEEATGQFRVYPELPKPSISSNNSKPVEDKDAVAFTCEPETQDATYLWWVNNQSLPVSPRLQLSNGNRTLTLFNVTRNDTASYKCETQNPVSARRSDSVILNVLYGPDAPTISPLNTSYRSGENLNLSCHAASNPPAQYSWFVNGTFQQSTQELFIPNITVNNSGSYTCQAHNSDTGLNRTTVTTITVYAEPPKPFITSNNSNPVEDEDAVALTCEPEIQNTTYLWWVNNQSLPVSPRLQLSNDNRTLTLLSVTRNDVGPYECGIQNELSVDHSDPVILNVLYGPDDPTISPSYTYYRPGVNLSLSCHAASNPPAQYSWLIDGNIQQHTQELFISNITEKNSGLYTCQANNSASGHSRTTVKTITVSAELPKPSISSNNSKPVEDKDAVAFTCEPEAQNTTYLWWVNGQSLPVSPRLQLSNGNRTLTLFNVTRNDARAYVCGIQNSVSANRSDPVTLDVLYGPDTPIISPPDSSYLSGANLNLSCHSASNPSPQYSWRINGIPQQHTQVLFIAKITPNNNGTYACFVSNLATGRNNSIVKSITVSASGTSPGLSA
Nature of the experiment: flow cytometry on MKN45 cells, BGA5384 premixed with 1.00 ug/ml recombinant soluble CEA (competitor), anti-huFc-APC. The procedure: The mixtures were then incubated with 2×10^5 CEA-expressing cells, such as MKN45 cells, for 30 minutes at 4° C. The cells were stained with secondary antibody anti-huFc-APC (Cat. No. 409320, BioLegend, USA) and analyzed by flow cytometry.
A general note: Flow cytometry measures light scatter and fluorescence of single cells or particles in a stream.

B1: BGA5384 (antibody, human IgG1, kappa, V domains shown)
VH: QVQLVQSGAEVKKPGASVKVSCKASGYIFTSYYLHWVRQAPGQGLEWIGYINPQTGKTSYAQKFQGRVTMTRDTSTSTVYMELSSLRSEDTAVYYCAREYGNYNYPLDYWGQGTLVTVSS
VL: DIQMTQSPSSLSASVGDRVTITCRASENQYGYLAWYQQKPGKVPKLLIYNYKNLVEGVPSRFSGSGSGTDFTLTISSLQPEDVATYYCQHHLGTPYTFGQGTKVEIKR
notes: BGA6710 with Y57K in VH; human IgG1 format; also called BGA7592-1K
The term Kd denotes the free concentration of one partner at which half of the binding sites on the other are occupied at equilibrium, for simple one-to-one binding. Lower therefore signals higher affinity. The term EC50 (read off the curve) denotes the midpoint of the concentration-response curve. Regarding B1, the binding result in experiment [1] and in experiment [2] was “no binding” throughout. In addition, binding in experiment [3] was put at a Kd of 19.9 nM. In addition, the “EC50 (read off the curve)” value in experiment [4] is around 2 µg/mL.

For the origin of these results see patent US20250115677A1, “Anti-CEA Antibody Drug Conjugates and Methods of Use” (BeiGene Switzerland GmbH, priority 2022, published 2025).
